This note sets out measurements from paper PMC11805834 (Applied Microbiology and Biotechnology, 2025).

By Kd is commonly meant the equilibrium constant for the complex coming apart. High values mean weaker binding, low ones tighter binding.

This assay concerns the target T1, mouse CD80-Fc fusion protein (mouse, UniProt Q00609 38-246).
T1 sequence: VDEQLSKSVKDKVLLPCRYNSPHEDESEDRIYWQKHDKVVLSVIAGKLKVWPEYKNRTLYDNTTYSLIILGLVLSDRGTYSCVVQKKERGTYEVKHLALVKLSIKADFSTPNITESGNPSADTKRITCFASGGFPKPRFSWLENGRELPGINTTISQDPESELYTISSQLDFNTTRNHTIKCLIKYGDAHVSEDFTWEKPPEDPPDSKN
The experiment in a line: SPR.

B1: Mouse CD28 protein with His tag (receptor)
chain: NKILVKQSPLLVVDSNEVSLSCRYSYNLLAKEFRASLYKGVNSDVEVCVGNGNFTYQPQFRSNAEFNCDGDFDNETVTFRLWNLHVNHTDIYFCKIEFMYPPPYLDNERSNGTIIHIKEKHLCHTQSSPKL
For B1, the dissociation constant Kd was determined as 2.49 µM.
